Measured values as given in paper PMC5300068.
One block for each substance: values may come before it.

Experiments:
Test in all cases: AUC; sedimentation velocity, 50,000 rpm, absorbance optics, c(s) analysis; physiological ionic strength, buffers with Ca2+ or EDTA; 0.8-2.2 uM for full-length MASPs; dimer to monomers
[1] = biological target: full-length rat MASP-1 zymogen (rat) (UniProt Q8CHN8)
[2] = biological target: rat MASP-1 CUB1-EGF-CUB2 (MASP-1 3D) (rat) (UniProt Q8CHN8)
[3] = biological target: activated full-length rat MASP-2 (rat)
[4] = biological target: full-length rat MASP-2 zymogen (rat) (UniProt Q9JJS8)
[5] = biological target: activated full-length rat MASP-1 (rat)

Substance: rat MASP-1 CUB1-EGF-CUB2 (MASP-1 3D) (from UniProt Q8CHN8 61-301) (domain or fragment)
- stoichiometry N [2]: 2

Substance: full-length rat MASP-2 zymogen (from UniProt Q9JJS8 20-685) (enzyme)
- Kd [4]: < 10 nM
- stoichiometry N [4]: 2

Substance: activated full-length rat MASP-1 (enzyme)
- Kd [5]: < 10 nM
- stoichiometry N [5]: 2

Next, values leading:

- Kd [1]: < 10 nM
- stoichiometry N [1]: 2
Substance: full-length rat MASP-1 zymogen (from UniProt Q8CHN8 25-704) (enzyme)

- Kd [3]: < 10 nM
- stoichiometry N [3]: 2
Substance: activated full-length rat MASP-2 (enzyme)
